Experimental data as given in CN115477698A (UNIV CHONGQING MEDICAL; FENG YULIN, dated 2022).

target: SARS-COV-2RBD (SARS-CoV-2, UniProt P0DTC2 319-541); test: ELISA, RBD coated at 2 μg/mL, 293T transfection supernatant, anti-human IgG-ALP detection

Binder	binding result
单抗18-CQTS063 (antibody, V domains shown) VH: QVQLVQSGAEVKKPGSSVKVSCKASGGTFSSYAISWVRQAPGQGLEWMGGIIPIFGTANYAQKFQGRVTITADESTSTAYMELSSLRSEDTAVYYCATDGGGGSYYYAHYYYGMDVWGQGTTVTVSS VL: QTVVTQEPSFSVSPGGTVTLTCGLSSGSVPTSYFPSWYQQTPGQAPRTLIYGTNTRSSGVPDRFSGSILGNKAALTITGAQADDESDYYCVLYMGSGIVVFGGGTKLTVL	binds
单抗15-CQTS059 (antibody, V domains shown) VH: EVQLVQSGAEVKKPGESLKISCKASGYRFTNYWTVWVRQMPGKGLEWMGIIYPGDSEIRYSPPFQGQVTISADKSISTAYLQWSSLKASDTAMYYCARHPSNFYDSGGDYYAMDVWGQGTPVTVSS VL: QSALTQPASVSGSPGQSITISCTGTSSNVGNYDLVSWYQQHPGKAPKLMIYEVNKRPSGVSDRFSGSKSGNTASLTISGLQAEDEADFYCCSYAGSSSWVFGGGTKVTVL	binds
单抗16-CQTS061 (antibody, V domains shown) VH: EVQLVESGGGLVQPGGSLRLSCAASGFTVISNYMSWVRQAPGKGLEWVSVIYRGGSTYFADSVKGRFTISRDNSKNTLYLQMNSLRAEDTAVYYCARLASDGSGSYLDYFDYWGQGTLVTVSS VL: QSVLTQPPSVSGAPGQRVTISCTGSSSNIGADYDVHWYQQFPGTAPKLLIYGNSNRPSGVPDRFSGSKSGTSASLAITGLQAEDEADYYCQSYDSSLSGSWVFGGGTKLTVL	binds
单抗12-CQTS056 (antibody, V domains shown) VH: EVQLVQSGAEVKKPGESLKISCQGSGFSFSNYWIGWVRQMPGKGLEWMGIIYPDDSDTRYSPSFQGQVTISADKSISTAFLQWSSLKASDTAMYYCATRTGWTNDAFDIWGQGTMVTVSS VL: not shown	binds
单抗20-CQTS065 (antibody, V domains shown) VH: EMQLVESGGGLVQPGGSLRLSCAASGFTFSTYEMNWVRQAPGKGLEWVSYISSSTNSIYYAGSVQGRFTISRGNAKNSLYLQMNSLRAEDTAVYYCARGRDDYGDYRGGDFDYWGQGTLVTVSS VL: QIVLTQSPATLSLSPGERATLSCRASQSVTTYLAWYQQKPGQAPRLLIYDASHRATGIPARFSGSGSGTDFTLTISSLEPEDFAVYYCQQRSNWPPITFGPGTKVEIK	binds
单抗13-CQTS057 (antibody, V domains shown) VH: QVTLRESGPALVKPTQTLTLTCTFSGFSLSTSGMCVSWIRQPPGKALEWLARIDWDDDKYYSTSLRTRLTISKDTSKNLVVLTMTNMDPVDTATYYCALGRAGTMDYWGQGTLVTVSS VL: DIQMTQSPSSLSASVGDRVTITCRASQSIRSYLNWYQQKPGKAPKVLIYAASSLQSGVPSRFSGSGSGTDFTLTISSLQPGDFATYYCQQSYSPPYTFGQGTKLEIK	binds
单抗11-CQTS055 (antibody, V domains shown, also called 实施例1的新冠病毒RBD特异性单克隆抗体) VH: EVQLVESGGGLVQPGGSLRLSCAASGFTFSNYDMHWVRQGTGKGLEWVSAIGTAGDTYYPGSVKGRFTISRENAKNSLYLQMNSLRAGDTALYYCARVGYYGSGSYPLYWYFDLWGRGTLVTVSS VL: DIQMTPSPSSLSASVGDRVTITCRASQSISIYLNWYQQKPGKAPKLLIYAASNLQSGVPSRFSGSGSGTEFTLTISSLQPEDFATYFCQQSYSAPPWTFGQGTRVEIR	binds
单抗19-CQTS064 (antibody, V domains shown) VH: EVQLVQSGAEVKKPGESLKISCEGSGYSFISYWIGWVRQMPGKGLEWMGIIYPGDSDTRYSPSFQGQVTISADRSISTAYLQWSSLKASDTAMYYCVRSDGDYVIGHDYWGQGTLVTVSS VL: not shown	binds
单抗17-CQTS062 (antibody, V domains shown) VH: EVQLVESGGGLVQPGRSLRLSCAASGFTFDDYAMHWVRQAPGKGLEWVSGISWNSDSIGYADSVKGRFTISRDNAKNSLYLQMNSLRAEDTALYYCAKDLSSGWDLFDYWGQGTLVTVSS VL: SYVLTQPPSVSVAPGKTARITCGGNNIGSKSVHWYQQKPGQAPVLVIYYDSDRPSGIPERFSGSNSGNTATLSISRVEAGDEAGYYCQVWDTSGDPLVFGGGTKLTVL	binds
单抗14-CQTS058 (antibody, V domains shown) VH: EVQLVESGGGLVQPGRSLRLSCAASGFTFDDYAMHWVRQAPGKGLEWVSGISWSSGSIVYADSVKGRFTVSRDNAKNSLYLQMNSLRVEDTAFYYCAKDMVAGPHYYGMDVWGQGTTVTVSS VL: not shown	binds
